Measurements from the supplement of paper PMC11136658.

System: peptide library, one residue held at a place counted from the Y acceptor
Test: relative phosphorylation of the sub-library (ratio to the mean residue at this position); higher = residue favoured
How it was run: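 Biotinylated Tyr-centred peptide library mixtures, each fixing one residue at one position from −5 to +5, were incubated with purified recombinant kinases in 384-well plates for 90 min with 50 μM ATP plus γ-32P-ATP. Streptavidin membranes captured the peptides, which were rinsed and quantified by phosphorimaging and ImageQuant. At each position, intensities were divided by the sum of the 18 randomized residues (16 for the Ser/Thr-free library) and multiplied by that number. Each value is phosphorylation relative to the mean randomized residue.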

Sequence of PDHK4, construct: Full length, human (Q16654 whole entry, looked up): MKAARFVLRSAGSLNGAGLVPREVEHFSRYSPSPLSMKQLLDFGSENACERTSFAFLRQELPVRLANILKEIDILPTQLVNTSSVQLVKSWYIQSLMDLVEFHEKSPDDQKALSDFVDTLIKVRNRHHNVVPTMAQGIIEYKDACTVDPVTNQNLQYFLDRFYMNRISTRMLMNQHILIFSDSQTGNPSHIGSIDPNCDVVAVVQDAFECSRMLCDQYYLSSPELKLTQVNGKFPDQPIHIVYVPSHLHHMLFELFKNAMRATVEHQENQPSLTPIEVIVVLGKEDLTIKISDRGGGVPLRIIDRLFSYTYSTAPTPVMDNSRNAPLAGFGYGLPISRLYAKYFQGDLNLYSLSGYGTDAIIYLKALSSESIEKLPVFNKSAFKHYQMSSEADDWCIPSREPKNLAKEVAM
Sequence of PDHK3, construct: Full length, human (Q15120 whole entry, looked up): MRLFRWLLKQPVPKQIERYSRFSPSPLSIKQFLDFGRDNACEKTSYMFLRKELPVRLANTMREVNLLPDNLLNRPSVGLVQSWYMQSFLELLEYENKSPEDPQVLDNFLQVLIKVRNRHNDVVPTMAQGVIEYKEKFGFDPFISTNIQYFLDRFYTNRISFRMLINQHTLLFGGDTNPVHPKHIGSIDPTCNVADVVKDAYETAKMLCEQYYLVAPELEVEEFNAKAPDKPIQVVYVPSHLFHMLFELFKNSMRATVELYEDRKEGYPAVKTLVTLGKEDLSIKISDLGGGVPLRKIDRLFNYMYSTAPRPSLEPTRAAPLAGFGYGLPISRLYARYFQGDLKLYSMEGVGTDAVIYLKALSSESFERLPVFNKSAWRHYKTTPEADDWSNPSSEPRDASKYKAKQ

PDHK3, construct: Full length, human (from UniProt Q15120)
relative phosphorylation
Conditions	at +1	at +2	at +3	at +4	at +5	at -1	at -2	at -3	at -4	at -5
A fixed	0.864	0.935	0.907	1.15	0.809	0.955	1.04	0.965	1.15	1.1
D fixed	1.32	1.44	1.3	1.46	1.44	1.19	1.1	1.17	1.1	1.09
E fixed	1.1	1.02	1.32	1.46	1.23	0.907	1.02	0.781	0.943	0.994
F fixed	0.733	0.957	0.902	0.883	0.884	0.734	0.863	0.82	0.811	0.999
G fixed	1.14	0.947	1.11	1.06	1.09	1.03	1.07	1.24	1.33	1.12
H fixed	0.976	1.03	0.971	1.07	0.992	0.908	0.901	0.76	0.958	1.06
I fixed	0.74	0.721	0.875	0.87	0.766	0.781	0.793	0.67	0.826	0.874
K fixed	1.02	0.994	0.862	0.886	0.842	1.22	1.15	1.17	1	1.09
L fixed	0.876	0.878	0.869	1.03	0.886	0.906	1.12	1	0.9	0.95
M fixed	0.895	0.784	1.03	0.855	0.873	0.765	0.875	0.745	0.843	0.779
N fixed	1.18	1.01	0.955	0.877	0.944	1.04	0.912	0.933	0.986	0.897
P fixed	1.15	1.14	0.994	1.09	1.01	1.26	1.39	1.71	1.09	1.08
Q fixed	1.1	0.957	0.916	0.855	0.986	1.08	0.825	1.04	0.995	0.978
R fixed	1.09	0.889	0.906	0.714	0.926	1.09	1.02	1.01	1.18	0.997
V fixed	0.722	0.908	0.836	0.781	0.778	0.898	0.911	0.885	0.827	0.844
W fixed	1.1	1.39	1.26	0.97	1.54	1.24	1.03	1.09	1.07	1.15
pThr fixed	1.23	1.1	1.23	1.5	1.23	1.05	0.926	1.01	0.884	0.839
pTyr fixed	1.22	1.04	1.01	1.05	1.42	0.948	0.814	0.789	0.694	0.754

PDHK4, construct: Full length, human (from UniProt Q16654)
relative phosphorylation
Conditions	at +1	at +2	at +3	at +4	at +5	at -1	at -2	at -3	at -4	at -5
A fixed	0.747	0.56	0.742	0.698	0.589	0.81	0.808	0.801	0.946	0.872
D fixed	1.19	1.6	1.29	1.41	1.34	1.15	1.15	1.25	1.27	1.31
E fixed	1.04	1.2	1.49	1.26	1.33	1.02	1.11	0.838	1.11	1.17
F fixed	0.751	0.966	0.945	0.996	1.01	0.723	0.874	0.873	0.94	0.934
G fixed	1.01	0.938	1.02	0.95	1.05	1.17	1.24	1.26	1.19	1.1
H fixed	0.998	1.01	0.995	1.11	1.03	1.05	0.911	0.777	0.983	1.11
I fixed	0.568	0.546	0.652	0.669	0.722	0.654	0.654	0.568	0.739	0.773
K fixed	1.04	0.95	0.777	0.863	0.777	1.14	0.926	1.25	0.945	1.02
L fixed	0.798	0.809	0.798	1.1	1.03	0.823	1.1	0.99	0.827	0.827
M fixed	0.695	0.776	0.891	0.92	0.968	0.75	0.796	0.712	0.822	0.809
N fixed	1.49	1.3	1.16	1.15	1.06	1.34	1.21	1.14	1.01	1.07
P fixed	1.15	1.1	1.09	1.06	0.957	1.27	1.22	1.74	1.1	1.11
Q fixed	1.39	1.42	1.19	1.26	1.21	1.32	1.11	1.24	1.02	1.03
R fixed	1.17	0.976	0.885	0.812	0.798	1.11	1.09	0.868	1.06	0.994
V fixed	0.572	0.565	0.604	0.644	0.703	0.539	0.652	0.645	0.669	0.681
W fixed	1.39	1.28	1.47	1.1	1.44	1.13	1.15	1.05	1.37	1.18
pThr fixed	1.31	1.69	1.35	1.51	1.1	1.43	1.19	1.42	1.32	1.43
pTyr fixed	1.1	1.18	0.974	1.03	1.43	1.09	1.09	0.858	1.18	1.28
